Numbering of substitutions follows the chain as printed. One block for each binder: values may come before it.
Target: T1, human transferrin receptor (recombinant, for surface plasmon resonance) (human, UniProt P02786 89-760)
T1 construct: also called huTfR; human transferrin receptor-biotinylated
Assay: SPR 25C

T1 sequence (P02786 89-760 limits assumed): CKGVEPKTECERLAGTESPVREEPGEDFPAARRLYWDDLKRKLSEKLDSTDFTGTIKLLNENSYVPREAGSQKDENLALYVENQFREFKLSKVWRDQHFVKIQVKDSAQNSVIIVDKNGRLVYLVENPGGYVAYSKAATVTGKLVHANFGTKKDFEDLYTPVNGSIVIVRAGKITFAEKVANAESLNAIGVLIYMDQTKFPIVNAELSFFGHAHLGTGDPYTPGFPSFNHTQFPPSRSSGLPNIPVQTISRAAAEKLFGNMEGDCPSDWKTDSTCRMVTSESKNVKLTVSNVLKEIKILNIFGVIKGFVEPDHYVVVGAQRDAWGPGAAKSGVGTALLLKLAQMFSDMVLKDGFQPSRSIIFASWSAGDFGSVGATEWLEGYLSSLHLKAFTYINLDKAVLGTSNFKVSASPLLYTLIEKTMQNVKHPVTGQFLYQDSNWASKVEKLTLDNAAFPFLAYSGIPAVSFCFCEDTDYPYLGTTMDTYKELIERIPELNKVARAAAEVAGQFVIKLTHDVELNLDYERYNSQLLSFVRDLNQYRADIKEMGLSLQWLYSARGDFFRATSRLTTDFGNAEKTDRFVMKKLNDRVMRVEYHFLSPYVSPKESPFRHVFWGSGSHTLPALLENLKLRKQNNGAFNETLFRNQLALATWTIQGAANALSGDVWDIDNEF

koff: 0.00543 s⁻¹
B1: 2/99 VH15/VL7 (antibody, V domains shown)
VH: QQLQESGPGLVKPSETLSLTCTVSGFSLSSYAMSWVRQPPGKGLEWIGYIWSGGSTDYNPSLKSRVTISVDTSKNQVSLKLSSVTAADTAVYYCARRYGTSYPDYGDANGFDPWGQGTLVTVSS
VL: AIQLTQSPSSLSASVGDRVTITCRASQSISSYLAWYQQKPGKAPKLLIYRASTLASGVPSRFSGSGSGTDFTLTISSLQPEDFATYYCQQSYSSSNVDNTFGGGTKVEIK

koff: 0.00155 s⁻¹
B2: 2/99 VH23-DANG/VL7 (antibody, V domains shown)
VH: QSMQESGPGLVKPSQTLSLTCTVSGFSLSSYAMSWIRQHPGKGLEWIGYIWSGGSTDYASWAKSRVTISKTSTTVSLKLSSVTAADTAVYYCARRYGTSYPDYGDANGFDPWGQGTLVTVSS
VL: B1 VL

koff: 0.00525 s⁻¹
B3: 2/99 VH16/VL7 (antibody, V domains shown)
VH: B1 VH with Q116P
VL: B1 VL

koff: 0.00766 s⁻¹
B4: 2/99 VH18/VL7 (antibody, V domains shown)
VH: QVQLQESGPGLVKPSQTLSLTCTVSGFSLSSYAMSWIRQHPGKGLEWIGYIWSGGSTDYAPSLKSRVTISVDTSKNQFSLKLSSVTAADTAVYYCARRYGTSYPDYGDANGFDPWGQGTLVTVSS
VL: B1 VL

koff: 0.00677 s⁻¹
B5: 2/99 VH18/VL8 (antibody, V domains shown)
VH: B4 VH
VL: B1 VL with I2Y, A34S

koff: 0.00523 s⁻¹
B6: 2/99 VH9/VL8 (antibody, V domains shown)
VH: QQLLESGGGLVQPGGSLRLSCAASGFTFSSYAMSWVRQAPGKGLEWVGYIWSGGSTDYADSVKGRFTISRDNSKNTLYLQMNSLRAEDTAVYYCAKRYGTSYPDYGDANGFDPWGQGTLVTVSS
VL: B1 VL with I2Y, A34S

koff: 0.00485 s⁻¹
B7: 2/99 VH1/VL8 (antibody, V domains shown)
VH: B6 VH with Q1V, L4V, S6T, V11I, T27S, F28L, K96R
VL: B1 VL with I2Y, A34S

koff: 0.00658 s⁻¹
B8: 2/99 VH20/VL8 (antibody, V domains shown)
VH: B1 VH with Q2S, L3M, E15Q, V36I, P39H, N59A
VL: B1 VL with I2Y, A34S

koff: 0.00455 s⁻¹
B9: 2/99 VH6/VL10 (antibody, V domains shown)
VH: B6 VH with L4V, S6T, V11I, T27S, F28L, V47I, K96R
VL: B1 VL with A1D, L4M, A34S, G66R

koff: 0.00111 s⁻¹
B10: 2/99 VH17/VL8 (antibody, V domains shown)
VH: B1 VH with V70K, Q116P
VL: B1 VL with I2Y, A34S

koff: 0.00552 s⁻¹
B11: 2/99 VH11/VL8 (antibody, V domains shown)
VH: B6 VH with T27S, F28L, K96R
VL: B1 VL with I2Y, A34S

koff: 0.00677 s⁻¹
B12: 2/99 VH1/VL10 (antibody, V domains shown)
VH: B6 VH with Q1V, L4V, S6T, V11I, T27S, F28L, K96R
VL: B1 VL with A1D, L4M, A34S, G66R

koff: 0.001 s⁻¹
B13: 2/99 VH19/VL7 (antibody, V domains shown)
VH: B1 VH with Q2S, L3M, E15Q, V36I, P39H, N59A, V77F
VL: B1 VL

koff: 0.00209 s⁻¹
B14: 2/99 VH15/VL8 (antibody, V domains shown)
VH: B1 VH
VL: B1 VL with I2Y, A34S

koff: 0.00531 s⁻¹
B15: 2/99 VH12/VL8 (antibody, V domains shown)
VH: B4 VH with Q16E, H40P, A60N
VL: B1 VL with I2Y, A34S

koff: 0.00247 s⁻¹
B16: 2/99 VH13/VL8 (antibody, V domains shown)
VH: B4 VH with Q16E, H40P, A60N, F78V
VL: B1 VL with I2Y, A34S

koff: 0.00671 s⁻¹
B17: 2/99 VH19/VL8 (antibody, V domains shown)
VH: B1 VH with Q2S, L3M, E15Q, V36I, P39H, N59A, V77F
VL: B1 VL with I2Y, A34S

koff: 0.00337 s⁻¹
B18: 2/99 VH22/VL7 (antibody, V domains shown)
VH: B1 VH with Q2S, L3M, E15Q, P39H, N59A, P60S, S61W, L62A
VL: B1 VL

koff: 0.00394 s⁻¹
B19: 2/99 VH2/VL8 (antibody, V domains shown)
VH: EVQLVETGGGLIQPGGSLRLSCAASGFSLSSYAMSWVRQAPGKGLEWVGYIWSGGSTDYADSVKGRFTISRDNSKNTLYLQMNSLRAEDTAVYYCARRYGTSYPDYGDANGFDPWGQGTLVTVSS
VL: B1 VL with I2Y, A34S

koff: 0.00173 s⁻¹
B20: 2/99 VH8/VL10 (antibody, V domains shown)
VH: QQLVETGGGLIQPGGSLRLSCAASGFSLSSYAMSWVRQAPGKGLEWIGYIWSGGSTDYASWAKGRFTISKTSTTLYLQMNSLRAEDTAVYYCARRYGTSYPDYGDANGFDPWGQGTLVTVSS
VL: B1 VL with A1D, L4M, A34S, G66R

koff: 0.00238 s⁻¹
B21: 2/99 VH21/VL7 (antibody, V domains shown)
VH: B1 VH with Q2S, L3M, E15Q, V36I, P39H, N59A, P60S, S61W, L62A
VL: B1 VL

koff: 0.00378 s⁻¹
B22: 2/99 VH5/VL8 (antibody, V domains shown)
VH: B6 VH with Q2S, L3M, L4E, S6T, V11I, T27S, F28L, K96R, Q116P
VL: B1 VL with I2Y, A34S

koff: 0.00653 s⁻¹
B23: 2/99 VH5/VL10 (antibody, V domains shown)
VH: B6 VH with Q2S, L3M, L4E, S6T, V11I, T27S, F28L, K96R, Q116P
VL: B1 VL with A1D, L4M, A34S, G66R

koff: 0.00264 s⁻¹
B24: 2/99 VH7/VL10 (antibody, V domains shown)
VH: B6 VH with L4V, S6T, V11I, T27S, F28L, V47I, D60S, S61W, V62A, K96R
VL: B1 VL with A1D, L4M, A34S, G66R

koff: 0.00301 s⁻¹
B25: 2/99 VH6/VL8 (antibody, V domains shown)
VH: B6 VH with L4V, S6T, V11I, T27S, F28L, V47I, K96R
VL: B1 VL with I2Y, A34S

koff: 0.00172 s⁻¹
B26: 2/99 VH7/VL8 (antibody, V domains shown)
VH: B6 VH with L4V, S6T, V11I, T27S, F28L, V47I, D60S, S61W, V62A, K96R
VL: B1 VL with I2Y, A34S

koff: 0.00233 s⁻¹
B27: 2/99 VH17/VL7 (antibody, V domains shown)
VH: B1 VH with V70K, Q116P
VL: B1 VL

koff: 0.00714 s⁻¹
B28: 2/99 VH20/VL7 (antibody, V domains shown)
VH: B1 VH with Q2S, L3M, E15Q, V36I, P39H, N59A
VL: B1 VL

koff: 0.00649 s⁻¹
B29: 2/99 VH2/VL10 (antibody, V domains shown)
VH: B19 VH
VL: B1 VL with A1D, L4M, A34S, G66R

koff: 0.00174 s⁻¹
B30: 2/99 VH21/VL8 (antibody, V domains shown)
VH: B1 VH with Q2S, L3M, E15Q, V36I, P39H, N59A, P60S, S61W, L62A
VL: B1 VL with I2Y, A34S

koff: 0.00116 s⁻¹
B31: 2/99 VH8/VL8 (antibody, V domains shown)
VH: B20 VH
VL: B1 VL with I2Y, A34S

koff: 0.000941 s⁻¹
B32: 2/99 VH23-DANG/VL8 (antibody, V domains shown)
VH: B2 VH
VL: B1 VL with I2Y, A34S

koff: 0.00165 s⁻¹
B33: 2/99 VH22/VL8 (antibody, V domains shown)
VH: B1 VH with Q2S, L3M, E15Q, P39H, N59A, P60S, S61W, L62A
VL: B1 VL with I2Y, A34S

koff: 0.00197 s⁻¹
B34: 2/99 VH16/VL8 (antibody, V domains shown)
VH: B1 VH with Q116P
VL: B1 VL with I2Y, A34S

koff: 0.00141 s⁻¹
B35: 2/99 VH0(rb)/VL9-NYA (antibody, V domains shown)
VH: QSMEESGGRLVTPGTPLTLTCTVSGFSLSSYAMSWVRQAPGKGLEWIGYIWSGGSTDYASWAKGRFTISKTSTTVDLKITSPTTEDTATYFCARRYGTSYPDYGDANGFDPWGPGTLVTVSS
VL: AIQLTQSPSSLSASVGDRVTITCRASQSISSYLAWYQQKPGKAPKLLIYRASTLASGVPSRFSGSGSGTDFTLTISSLQPEDFATYYCQQNYASSNVDNTFGGGTKVEI

Source: patent US20180291110A1 (Hoffmann-La Roche, published 2018)
